Source: patent US20210054353, “NOVEL RNA-PROGRAMMABLE ENDONUCLEASE SYSTEMS AND USES THEREOF” (CRISPR THERAPEUTICS AG, published 2021)

Assays:
F8 sRGN = biological target: T1, F8 sRGN (synthetic (Staphylococcus Cas9 chimera)); test: FP; cleavage; 5 mM MgCl2, 37 C
T1 chain: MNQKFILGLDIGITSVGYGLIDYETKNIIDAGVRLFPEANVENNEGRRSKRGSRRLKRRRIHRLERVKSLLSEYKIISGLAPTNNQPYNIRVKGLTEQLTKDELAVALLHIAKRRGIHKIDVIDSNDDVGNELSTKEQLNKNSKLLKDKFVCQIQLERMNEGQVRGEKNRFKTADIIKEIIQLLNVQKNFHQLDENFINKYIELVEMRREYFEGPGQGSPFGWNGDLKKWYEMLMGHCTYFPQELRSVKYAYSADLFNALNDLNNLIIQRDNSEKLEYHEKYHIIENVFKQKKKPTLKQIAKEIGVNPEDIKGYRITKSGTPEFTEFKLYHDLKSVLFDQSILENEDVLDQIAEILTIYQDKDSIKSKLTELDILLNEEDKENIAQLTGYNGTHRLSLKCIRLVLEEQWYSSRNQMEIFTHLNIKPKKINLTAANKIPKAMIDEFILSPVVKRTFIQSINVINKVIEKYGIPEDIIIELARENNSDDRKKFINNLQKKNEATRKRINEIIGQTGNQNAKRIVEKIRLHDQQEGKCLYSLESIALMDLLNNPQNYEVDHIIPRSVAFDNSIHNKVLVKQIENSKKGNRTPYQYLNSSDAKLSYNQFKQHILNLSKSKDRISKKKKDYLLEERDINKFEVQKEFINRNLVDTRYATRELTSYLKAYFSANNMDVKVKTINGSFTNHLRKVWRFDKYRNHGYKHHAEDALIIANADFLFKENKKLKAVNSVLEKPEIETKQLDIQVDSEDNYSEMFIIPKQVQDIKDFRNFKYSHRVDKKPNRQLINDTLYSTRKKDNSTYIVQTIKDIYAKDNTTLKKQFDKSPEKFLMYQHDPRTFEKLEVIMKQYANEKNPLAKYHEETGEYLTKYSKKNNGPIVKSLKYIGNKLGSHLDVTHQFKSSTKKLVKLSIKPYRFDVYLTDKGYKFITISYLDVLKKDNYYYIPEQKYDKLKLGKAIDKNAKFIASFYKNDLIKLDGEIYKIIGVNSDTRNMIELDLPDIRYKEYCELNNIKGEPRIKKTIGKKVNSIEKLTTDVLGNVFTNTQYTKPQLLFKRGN
Experimental: (§1) Oligonucleotide duplexes were prepared in 10 mM Tris (pH 7.8) 50 mM NaCl as 10 μM solutions (from 100 μM stocks) and annealed at 95° C. for 5 minutes then slowly cooled down in thermo cycler (6° C. per minute). The stocks were subsequently diluted in 10 mM Tris (pH 7.8), 50 mM NaCl, and 0.05% Pluronic. 20 μl of each oligonucleotide (20 nM) was immobilized on streptavidin coated plates, washed twice after 10 minutes and then incubated with a 20 μL sample for a kinetics of 60 minutes (excitation wavelength: 635 nm; emission wavelength: 670 nm). Prior to the cleavage the reaction RNP was formed. RNP was assembled by mixing 12.03 μl of the respective sRGN protein (1.21 μg/μl) in 3200 μl 1×PBS+5 mM MgCl₂ with and without sgRNA (SEQ ID NO: 128; 60 nM final concentration), RNPs were incubated 5 min at 37° C. prior to the reaction. 20 μl RNP was added to each well and the polarization was measured for 60 minutes at 37° C.
(§2) The cleavage kinetics were analyzed by calculating the initial slope of the oligonucleotide cleavage reaction. The slopes were calculated for each of the 61 substrates and normalized to the value of the on-target substrate (defined as 1). The normalized cleavage values for all 60 off-target substrates where then grouped according to their position. […]

Gib11 sRGN = biological target: T2, Gib11 sRGN (synthetic (Staphylococcus Cas9 chimera)); test: FP; cleavage; 5 mM MgCl2, 37 C; PAM GGGG on substrate; mismatch values only in figure
T2 chain: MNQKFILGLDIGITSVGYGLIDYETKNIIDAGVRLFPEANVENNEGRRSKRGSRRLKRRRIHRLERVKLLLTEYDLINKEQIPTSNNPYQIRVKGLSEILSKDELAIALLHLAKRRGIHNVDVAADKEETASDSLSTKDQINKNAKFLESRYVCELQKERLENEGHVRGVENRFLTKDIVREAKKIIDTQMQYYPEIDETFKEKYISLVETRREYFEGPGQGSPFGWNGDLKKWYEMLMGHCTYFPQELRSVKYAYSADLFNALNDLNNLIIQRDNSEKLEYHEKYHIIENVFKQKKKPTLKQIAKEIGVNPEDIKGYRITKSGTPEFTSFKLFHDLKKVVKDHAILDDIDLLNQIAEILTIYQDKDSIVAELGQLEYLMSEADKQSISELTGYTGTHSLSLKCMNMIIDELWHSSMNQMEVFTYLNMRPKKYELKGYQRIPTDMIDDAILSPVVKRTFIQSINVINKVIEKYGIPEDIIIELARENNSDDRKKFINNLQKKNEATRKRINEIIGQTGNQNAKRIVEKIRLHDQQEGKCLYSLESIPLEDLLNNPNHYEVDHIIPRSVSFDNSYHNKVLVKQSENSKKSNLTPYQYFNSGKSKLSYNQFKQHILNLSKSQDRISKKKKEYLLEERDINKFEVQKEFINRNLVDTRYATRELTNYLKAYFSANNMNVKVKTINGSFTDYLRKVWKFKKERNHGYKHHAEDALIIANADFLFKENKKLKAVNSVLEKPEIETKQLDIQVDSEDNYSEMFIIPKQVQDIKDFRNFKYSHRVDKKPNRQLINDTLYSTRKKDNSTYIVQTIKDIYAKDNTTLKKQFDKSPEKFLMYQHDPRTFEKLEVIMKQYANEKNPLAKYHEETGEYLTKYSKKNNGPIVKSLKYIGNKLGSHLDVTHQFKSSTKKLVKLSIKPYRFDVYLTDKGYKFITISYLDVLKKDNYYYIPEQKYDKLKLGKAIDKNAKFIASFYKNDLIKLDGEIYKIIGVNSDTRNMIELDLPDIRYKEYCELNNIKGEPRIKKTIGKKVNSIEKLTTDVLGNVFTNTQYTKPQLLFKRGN
Experimental: as §1, §2

Gib11Spa-3 sRGN = biological target: T3, Gib11Spa-3 sRGN (synthetic (Staphylococcus Cas9 chimera)); test: FP; cleavage; 5 mM MgCl2, 37 C; PAM GGGG on substrate
T3 chain: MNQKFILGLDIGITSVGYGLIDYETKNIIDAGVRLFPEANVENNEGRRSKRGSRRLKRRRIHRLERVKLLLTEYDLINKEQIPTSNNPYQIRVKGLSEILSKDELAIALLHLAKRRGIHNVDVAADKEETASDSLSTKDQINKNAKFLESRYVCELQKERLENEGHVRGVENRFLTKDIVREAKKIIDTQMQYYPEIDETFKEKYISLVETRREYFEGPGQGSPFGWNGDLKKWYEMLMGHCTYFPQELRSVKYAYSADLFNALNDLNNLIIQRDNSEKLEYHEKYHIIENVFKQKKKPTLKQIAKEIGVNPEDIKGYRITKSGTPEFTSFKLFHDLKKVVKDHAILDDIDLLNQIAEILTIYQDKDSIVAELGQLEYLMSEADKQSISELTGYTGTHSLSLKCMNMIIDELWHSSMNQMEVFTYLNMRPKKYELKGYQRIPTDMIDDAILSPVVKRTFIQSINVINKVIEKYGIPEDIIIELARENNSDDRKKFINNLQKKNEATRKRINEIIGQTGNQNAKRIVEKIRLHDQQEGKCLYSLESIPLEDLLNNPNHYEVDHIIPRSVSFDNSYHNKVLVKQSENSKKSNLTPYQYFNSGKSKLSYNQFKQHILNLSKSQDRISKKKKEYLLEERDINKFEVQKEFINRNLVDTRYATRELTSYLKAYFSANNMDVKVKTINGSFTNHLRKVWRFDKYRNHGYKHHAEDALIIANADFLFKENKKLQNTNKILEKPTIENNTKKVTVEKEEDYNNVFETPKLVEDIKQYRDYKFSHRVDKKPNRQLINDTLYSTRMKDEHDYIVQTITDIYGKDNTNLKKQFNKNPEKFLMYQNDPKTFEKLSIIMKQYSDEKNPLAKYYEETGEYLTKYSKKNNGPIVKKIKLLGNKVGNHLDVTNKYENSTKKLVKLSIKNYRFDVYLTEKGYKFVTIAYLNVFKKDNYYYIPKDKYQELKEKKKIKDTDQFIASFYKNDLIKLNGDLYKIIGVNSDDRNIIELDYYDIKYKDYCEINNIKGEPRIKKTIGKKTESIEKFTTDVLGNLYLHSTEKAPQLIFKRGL
Experimental: as §1, §2

Gib11Spa-1 sRGN = biological target: T4, Gib11Spa-1 sRGN (synthetic (Staphylococcus Cas9 chimera)); test: as above
T4 chain: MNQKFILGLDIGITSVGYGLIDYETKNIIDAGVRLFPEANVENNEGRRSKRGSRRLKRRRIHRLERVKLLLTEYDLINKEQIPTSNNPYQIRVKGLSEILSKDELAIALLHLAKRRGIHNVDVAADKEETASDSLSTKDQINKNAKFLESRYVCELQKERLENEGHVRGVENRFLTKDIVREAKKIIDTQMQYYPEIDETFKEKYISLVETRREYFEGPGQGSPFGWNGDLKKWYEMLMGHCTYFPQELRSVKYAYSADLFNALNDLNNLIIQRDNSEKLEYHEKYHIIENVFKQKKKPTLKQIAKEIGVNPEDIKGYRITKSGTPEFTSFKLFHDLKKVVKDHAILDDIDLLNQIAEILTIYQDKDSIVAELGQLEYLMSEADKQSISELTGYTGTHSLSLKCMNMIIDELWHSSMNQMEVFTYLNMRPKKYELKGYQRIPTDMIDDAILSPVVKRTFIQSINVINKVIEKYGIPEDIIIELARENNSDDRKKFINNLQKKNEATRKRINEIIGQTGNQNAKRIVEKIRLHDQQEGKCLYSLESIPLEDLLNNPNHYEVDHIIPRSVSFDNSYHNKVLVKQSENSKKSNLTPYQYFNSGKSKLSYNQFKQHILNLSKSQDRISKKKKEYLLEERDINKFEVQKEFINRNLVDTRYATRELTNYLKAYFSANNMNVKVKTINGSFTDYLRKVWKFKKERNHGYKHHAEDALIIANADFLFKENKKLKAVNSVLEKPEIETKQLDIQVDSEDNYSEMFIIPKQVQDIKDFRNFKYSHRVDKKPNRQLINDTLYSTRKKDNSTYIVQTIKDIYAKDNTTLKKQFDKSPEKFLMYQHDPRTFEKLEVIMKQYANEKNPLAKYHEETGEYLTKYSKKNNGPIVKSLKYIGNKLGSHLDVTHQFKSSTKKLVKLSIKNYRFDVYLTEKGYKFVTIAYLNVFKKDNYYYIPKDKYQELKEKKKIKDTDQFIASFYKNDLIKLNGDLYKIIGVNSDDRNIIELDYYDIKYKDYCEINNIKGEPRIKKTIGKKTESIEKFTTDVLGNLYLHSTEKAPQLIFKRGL
Experimental: as §1, §2

E2 sRGN = biological target: T5, E2 sRGN (synthetic (Staphylococcus Cas9 chimera)); test: FP; cleavage; specificity profile comparable to SluCas9
T5 chain: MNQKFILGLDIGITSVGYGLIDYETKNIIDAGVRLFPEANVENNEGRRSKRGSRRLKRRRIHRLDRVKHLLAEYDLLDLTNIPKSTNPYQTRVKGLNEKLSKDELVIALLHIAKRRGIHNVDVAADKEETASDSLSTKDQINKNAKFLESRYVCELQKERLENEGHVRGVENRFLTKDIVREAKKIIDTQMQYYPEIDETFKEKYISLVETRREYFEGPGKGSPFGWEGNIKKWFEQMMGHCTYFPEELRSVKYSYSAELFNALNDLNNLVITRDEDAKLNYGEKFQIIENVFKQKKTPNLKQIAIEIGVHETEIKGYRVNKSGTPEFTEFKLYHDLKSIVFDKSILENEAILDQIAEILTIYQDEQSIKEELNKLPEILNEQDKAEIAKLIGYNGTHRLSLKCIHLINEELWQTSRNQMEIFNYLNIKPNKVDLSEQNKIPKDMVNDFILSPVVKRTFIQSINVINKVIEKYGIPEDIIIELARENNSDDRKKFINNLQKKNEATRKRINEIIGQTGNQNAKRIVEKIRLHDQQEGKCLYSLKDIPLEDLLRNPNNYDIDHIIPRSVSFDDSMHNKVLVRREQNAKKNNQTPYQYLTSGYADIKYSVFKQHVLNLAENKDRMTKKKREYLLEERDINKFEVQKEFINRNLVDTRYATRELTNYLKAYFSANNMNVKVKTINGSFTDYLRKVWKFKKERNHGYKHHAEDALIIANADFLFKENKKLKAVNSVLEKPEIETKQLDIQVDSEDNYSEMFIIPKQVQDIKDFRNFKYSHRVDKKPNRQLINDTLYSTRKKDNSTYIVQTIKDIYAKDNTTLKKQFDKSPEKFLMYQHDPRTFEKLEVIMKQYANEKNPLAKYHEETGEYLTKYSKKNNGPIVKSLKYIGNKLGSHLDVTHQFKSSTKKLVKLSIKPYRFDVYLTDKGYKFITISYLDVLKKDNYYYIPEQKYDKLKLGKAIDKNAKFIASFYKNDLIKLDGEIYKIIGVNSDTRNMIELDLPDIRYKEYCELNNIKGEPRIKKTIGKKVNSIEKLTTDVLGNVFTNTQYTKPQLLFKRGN
Experimental: as §1, §2

Measured: binding result

B1: sgRNA_Ex6 ; R01-1 on-target duplex (ssRNA ; dsDNA)
RNA: GGUGAACGUGGAUGAAGUUGGUUUUAGUACUCUGGAAACAGAAUCUACUGAAACAAGACAAUAUGUCGUGUUUAUCCCAUCAAUUUAUUGGUGGGAUUUUUUUCUAGCAUAACCCCUUGGGGCCUCUAAACGGGUCUUGAGGGGUUUUUU
DNA 1: GGTGAACGTGGATGAAGTTGTGGGGTAC
DNA 2: GCGGTACCCCACAACTTCATCCACGTTCACCGG
binds: F8 sRGN | Gib11 sRGN | Gib11Spa-3 sRGN | Gib11Spa-1 sRGN | E2 sRGN
